From PMC4911930

Legend:
CENP-T^HFD/-W complex = CENP-T^HFD/-W complex (UniProt Q5EE01); assay: ITC; Spt16-CTD (amino acids 926–965; 2.2 mM) injected into 200 µL of 150 µM CENP-T/-W, human H2A/H2B or CENP S/X; 20°C; 20 mM Tris pH 7.5, 0.2 M NaCl; single-site model for CENP-T/-W, two-site model for H2A/H2B
Spt16 956–960A (human) = Spt16 956–960A (human) (UniProt Q9Y5B9); assay: pull-down; GST-tagged Spt16 fragments and alanine mutants as bait, CENP-T^HFD/-W as prey, GST alone as control; Coomassie gel; also with 1 M NaCl for 926–1047 (Supplemental Fig. S5a)
Spt16 952–955A (human) = Spt16 952–955A (human) (UniProt Q9Y5B9); assay: as above
[1] = biological target: Spt16 (human (endogenous in HeLa and U2OS)) (UniProt Q9Y5B9)

CENP-T, sequence (Q96BT3 whole entry): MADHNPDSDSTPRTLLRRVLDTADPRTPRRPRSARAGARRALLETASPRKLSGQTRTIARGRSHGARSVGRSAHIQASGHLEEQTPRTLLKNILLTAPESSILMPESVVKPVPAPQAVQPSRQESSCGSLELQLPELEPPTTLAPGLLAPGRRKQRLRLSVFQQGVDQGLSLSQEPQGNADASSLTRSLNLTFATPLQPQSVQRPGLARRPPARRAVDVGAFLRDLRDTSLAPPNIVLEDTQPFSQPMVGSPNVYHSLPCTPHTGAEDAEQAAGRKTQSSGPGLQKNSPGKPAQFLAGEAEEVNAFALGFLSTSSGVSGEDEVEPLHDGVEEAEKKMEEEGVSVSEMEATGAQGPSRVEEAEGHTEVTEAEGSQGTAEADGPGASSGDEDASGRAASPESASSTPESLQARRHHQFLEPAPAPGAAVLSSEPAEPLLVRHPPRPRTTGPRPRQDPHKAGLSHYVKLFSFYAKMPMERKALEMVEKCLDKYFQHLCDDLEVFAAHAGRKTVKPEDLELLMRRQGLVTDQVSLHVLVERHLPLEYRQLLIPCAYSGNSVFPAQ

With “Spt16-CTD (Spt16 amino acids 926–965) (from UniProt Q9Y5B9 926-965) (domain or fragment)” as the substance, how does the Kd (CENP-T^HFD/-W complex) read?
Its Kd is 6.3 µM.

“CENP-T^HFD/-W complex (from UniProt Q5EE01 1-88)” was tested. Which percent reduction of binding against unmutated Spt16 926–965 (Spt16 956–960A (human)) did it give?
Its percent reduction of binding against unmutated Spt16 926–965 is less than 60%.

What about the percent reduction of binding against unmutated Spt16 926–965 (Spt16 952–955A (human)) of the same substance?
The percent reduction of binding against unmutated Spt16 926–965 was less than 40%.

How did the accumulation of endogenous CENP-T at the LacO locus in cells transfected with eGFP-LacI-Spt16 (immunofluorescence after 24 h) [1] turn out when “CENP-T (from UniProt Q96BT3 1-561) (natural protein)” was run?
The accumulation of endogenous CENP-T at the LacO locus in cells transfected with eGFP-LacI-Spt16 (immunofluorescence after 24 h) was 10 % of cells.
